{"source": "paper PMC6768852", "about": "“The structural basis for RNA selectivity by the IMP family of RNA-binding proteins”", "binders": {"B1": {"name": "SELEX RNA #1 WT (ssRNA)", "RNA": "GGGCAGAGCGACGCAGUUUAGCGGCCUCAGCGAACCCUUUGGAACACUUCUCGAUAGUUGCGUGCGUCCAAA"}, "B2": {"name": "SELEX RNA #2 (ssRNA)", "RNA": "GGGCAGAGCGACGCAGUUUAGCCUGUGUAUACAGCGAACCCUUAGGAUGAUCGAUAGUUGCGUGCGUCGAAA"}}, "key": {"[1]": {"biological_target": "T1, IMP2 KH34 (UniProt Q9Y6M1 425-581)", "T1 sequence (Q9Y6M1 425-581)": "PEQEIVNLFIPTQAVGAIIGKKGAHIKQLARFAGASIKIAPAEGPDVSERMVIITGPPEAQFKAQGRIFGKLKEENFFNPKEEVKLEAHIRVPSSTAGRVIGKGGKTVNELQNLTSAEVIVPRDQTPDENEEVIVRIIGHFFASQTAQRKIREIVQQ", "experiment": "EMSA; EMSA: 100 pM RNA, 10 mM Tris, 100 mM NaCl, 0.1 mM EDTA, 0.01 mg/mL tRNA, 50 ug/mL heparin, 0.01% IGEPAL CA630, room temperature, 3 h; pH not stated", "details": "protein: recombinant; tags: MBP"}, "[2]": {"biological_target": "T2, ZBP1 KH34 (UniProt Q9NZI8 405-553)", "T2 sequence (Q9NZI8 405-553)": "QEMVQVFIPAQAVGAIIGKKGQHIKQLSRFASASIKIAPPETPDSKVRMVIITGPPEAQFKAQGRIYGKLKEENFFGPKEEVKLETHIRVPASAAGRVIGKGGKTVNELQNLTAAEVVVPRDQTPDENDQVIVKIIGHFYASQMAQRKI", "experiment": "EMSA; text: tight to IMP2 and not to ZBP1; EMSA: 100 pM RNA, 10 mM Tris, 100 mM NaCl, 0.1 mM EDTA, 0.01 mg/mL tRNA, 50 ug/mL heparin, 0.01% IGEPAL CA630, room temperature, 3 h; pH not stated", "details": "protein: recombinant; tags: MBP"}, "[3]": {"biological_target": "T3, IMP2 KH34 (NMR) (UniProt Q9Y6M1 425-581)", "T3 sequence (Q9Y6M1 425-581)": "as the sequence (Q9Y6M1 425-581) above", "experiment": "NMR titration; bound by KH4, intermediate exchange; EMSA: 100 pM RNA, 10 mM Tris, 100 mM NaCl, 0.1 mM EDTA, 0.01 mg/mL tRNA, 50 ug/mL heparin, 0.01% IGEPAL CA630, room temperature, 3 h; pH not stated", "details": "protein: recombinant; tags: 6xHis"}, "[4]": {"biological_target": "T2, ZBP1 KH34", "experiment": "EMSA; EMSA: 100 pM RNA, 10 mM Tris, 100 mM NaCl, 0.1 mM EDTA, 0.01 mg/mL tRNA, 50 ug/mL heparin, 0.01% IGEPAL CA630, room temperature, 3 h; pH not stated", "details": "protein: recombinant; tags: MBP"}, "[5]": {"biological_target": "T1, IMP2 KH34", "experiment": "EMSA; tenfold higher affinity than WT zipcode; EMSA: 100 pM RNA, 10 mM Tris, 100 mM NaCl, 0.1 mM EDTA, 0.01 mg/mL tRNA, 50 ug/mL heparin, 0.01% IGEPAL CA630, room temperature, 3 h; pH not stated", "details": "protein: recombinant; tags: MBP"}, "[6]": {"biological_target": "T3, IMP2 KH34 (NMR)", "experiment": "NMR titration; bound by KH3, fast exchange; EMSA: 100 pM RNA, 10 mM Tris, 100 mM NaCl, 0.1 mM EDTA, 0.01 mg/mL tRNA, 50 ug/mL heparin, 0.01% IGEPAL CA630, room temperature, 3 h; pH not stated", "details": "protein: recombinant; tags: 6xHis"}}, "data": [{"binder": "B1", "values": [{"measurement": "binding result", "setting": "[1]", "result": "binds"}, {"measurement": "binding result", "setting": "[2]", "result": "no binding"}]}, {"binder": "UUUGGAAC (ssRNA)", "note": "[GG element RNA (3' RE)]", "values": [{"measurement": "binding result", "setting": "[3]", "result": "binds"}]}, {"binder": "ACCGGACUGUUACCAACACCCACACCCC (ssRNA)", "note": "[C28 beta-actin zipcode WT]", "values": [{"measurement": "Kd", "setting": "[1]", "result": "161 ± 25", "unit": "nM"}, {"measurement": "Kd", "setting": "[4]", "result": "15 ± 4.9", "unit": "nM"}]}, {"binder": "B2", "values": [{"measurement": "binding result", "setting": "[1]", "result": "binds"}, {"measurement": "binding result", "setting": "[2]", "result": "no binding"}]}, {"binder": "ACCGGACUGUUACCAACACCCUCACCCC (ssRNA)", "note": "[C28 A22U]", "values": [{"measurement": "binding result", "setting": "[5]", "result": "binds"}]}, {"binder": "CCCUCACC (ssRNA)", "note": "[CA element RNA (5' RE)]", "values": [{"measurement": "binding result", "setting": "[6]", "result": "binds"}]}]}
